{
  "source": "patent US20050138692A1",
  "target": "native Ag GA733-2 on colorectal carcinoma cell line SW948 (human) (UniProt P16422)",
  "sequence (P16422 24-314)": "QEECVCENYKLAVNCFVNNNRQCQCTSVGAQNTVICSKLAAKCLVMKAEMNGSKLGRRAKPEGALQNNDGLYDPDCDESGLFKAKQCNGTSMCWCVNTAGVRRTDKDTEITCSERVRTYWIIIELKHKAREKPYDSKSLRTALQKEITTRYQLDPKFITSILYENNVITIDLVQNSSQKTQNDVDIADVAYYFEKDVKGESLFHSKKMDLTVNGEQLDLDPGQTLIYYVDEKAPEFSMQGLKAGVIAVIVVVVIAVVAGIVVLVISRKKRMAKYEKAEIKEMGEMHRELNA",
  "experiment": "cell ELISA on fixed SW948 cells, antibody at 0.93 ug/ml",
  "note": "Where “and” joins values, the source holds several entries; their conditions need not be identical. Equal entries are not always repeated.",
  "data": [
    {"substance": "MAb CO17-1A purified from the hybridoma supernatant (antibody)", "values": [
      {"measurement": "absorbance (absorbance (OD))", "value": "0.933 and 0.896"}
    ]}
  ]
}
